{"source": "paper PMC6650482", "about": "“Tyrosine 51 residue of the syndecan-2 extracellular domain is involved in the interaction with and activation of pro-matrix metalloproteinase-7” (Scientific Reports, 2019)", "molecules": {"B1": {"name": "IL-1α: IL-1α was purchased from R&D Systems (protein, UniProt P01583 113-271, looked up)", "Interleukin-1 alpha": "SAPFSFLSNVKYNFMRIIKYEFILNDALNQSIIRANDQYLTAAALHNLDEAVKFDMGAYKSSKDDAKITVILRISKTQLYVTAQDEDQPVLLKEMPEIPKTITGSETNLLFFWETHGTKNYFTSVAHPNLFIATKQDYWVCLAGGPPSITDFQILENQA"}}, "key": {"MMP-7 in HT-29 cells [1]": {"system": "MMP-7 in HT-29 cells", "test": "MMP-7 expression on IL-1α treatment", "format": "cell-based, human", "details": "1 ng/ml IL-1α, syndecan-2- and Y51A-expressing HT-29 cells", "experimental": "Figure 6 Tyrosine 51 of the syndecan-2 extracellular domain is involved in regulating pro-MMP-7 activation. (A) HT-29 cells were transiently transfected with 1 µg of vectors encoding SDC2 or the interaction-defective syndecan-2 mutant, Y51A, and the mRNA expression levels of SDC2 and MMP-7 were evaluated by RT-PCR (top). Conditioned media (CM) were collected and proteolytic activity was measured using quenched fluorescence peptide cleavage assay. The relative activity was normalized versus the fluorescence of a vector control (bottom). Data are shown as mean ± S.D. (n = 3), **p < 0.01 versus VEC or SDC2. (B) HT-29 cells were stably transfected with vectors encoding SDC2 or Y51A. The expression levels of the target mRNAs were analyzed by RT-PCR and quantitative real-time PCR (q-PCR) of three independent experiments was performed and normalized to GAPDH expression. Data are shown as mean ± S.D. (n = 3), *p < 0.05, **p < 0.01 versus VEC or SDC2 (left). […] CM were collected and proteolytic activity was measured using quenched fluorescence peptide cleavage assay (right bottom). […] The mRNA expression levels of SDC2 and MMP-7 were evaluated with RT-PCR (left top). CM were collected from the indicated cells and immunoblotted with an anti-MMP-7 antibody (left bottom) or subjected to quenched fluorescence peptide cleavage activity assay (right). […]"}, "MMP-7 in HT-29 cells [2]": {"system": "MMP-7 in HT-29 cells", "details": "cited from earlier work", "from_the_text": "Since syndecan-2 is known to mediate the activation of pro-MMP-7, we investigated how interrupting their interaction could affect syndecan-2-mediated MMP-7 activation. Firstly, we investigated whether the expression of syndecan-2 affects that of MMP-7."}}}
{"molecule": "B1", "values": [{"measurement": "MMP-7 expression", "setting": "MMP-7 in HT-29 cells [1]", "result": "upregulation of MMP-7"}, {"measurement": "MMP-7 expression in colon cancer cells", "setting": "MMP-7 in HT-29 cells [2]", "result": "known to induce MMP-7 expression"}]}
